This passage reports Kd results from PMC7943577.

The test has as its target BOM1093 of Borrelia miyamotoi strain MYK3, 6xHis-tagged on the C terminus, expressed in B. garinii HT59G (Borrelia miyamotoi strain MYK3). Kind of test: ELISA; Maxisorp wells coated with 0.5 µg/well sonicated B. garinii HT59G/pBOM1093 in TBS; recombinant human Vn 6.25-400 nM, 2 h at room temperature; detected with mouse anti-human Vn IgG; values of the mock strain (pBSV2) subtracted; KD fitted in Prism. A general note: An ELISA detects its analyte on a solid surface through an enzyme-linked reagent.

Take “recombinant human vitronectin (from UniProt P04004 20-478) (natural protein)”: the Kd came out at 10.8 nM.

The Kd is the constant that tells how readily two partners part at equilibrium.
